# Results taken from US20160145657A1, “Methods and Materials for Producing 7-Carbon Chemicals via a C9 Route” (INVISTA North America S.á.r.l., priority 2014, published 2016).
# B1: SEQ ID NO 9: Pseudomonas syringae ω-transaminase, Genbank Accession No. AAY39893.1 (protein)
# chain: MSANNPQTLEWQALSSEHHLAPFSDYKQLKEKGPRIITRAEGVYLWDSEGNKILDGMSGLWCVAIGYGREELADAASKQMRELPYYNLFFQTAHPPVLELAKAISDIAPEGMNHVFFTGSGSEGNDTMLRMVRHYWALKGQPNKKTIISRVNGYHGSTVAGASLGGMTYMHEQGDLPIPGVVHIPQPYWFGEGGDMTPDEFGIWAAEQLEKKILELGVENVGAFIAEPIQGAGGVIVPPDSYWPKIKEILSRYDILFAADEVICGFGRTSEWFGSDFYGLRPDMMTIAKGLTSGYVPMGGLIVRDEIVAVLNEGGDFNHGFTYSGHPVAAAVALENIRILREEKIVERVRSETAPYLQKRLRELSDHPLVGEVRGVGLLGAIELVKDKTTRERYTDKGAGMICRTFCFDNGLIMRAVGDTMIIAPPLVISFAQIDELVEKARTCLDLTLAVLQG
# B2: SEQ ID NO 3: Mycobacterium smegmatis carboxylate reductase, Genbank Accession No. ABK71854.1 (protein)
# chain: MTSDVHDATDGVTETALDDEQSTRRIAELYATDPEFAAAAPLPAVVDAAHKPGLRLAEILQTLFTGYGDRPALGYRARELATDEGGRTVTRLLPRFDTLTYAQVWSRVQAVAAALRHNFAQPIYPGDAVATIGFASPDYLTLDLVCAYLGLVSVPLQHNAPVSRLAPILAEVEPRILTVSAEYLDLAVESVRDVNSVSQLVVFDHHPEVDDHRDALARAREQLAGKGIAVTTLDAIADEGAGLPAEPIYTADHDQRLAMILYTSGSTGAPKGAMYTEAMVARLWTMSFITGDPTPVINVNFMPLNHLGGRIPISTAVQNGGTSYFVPESDMSTLFEDLALVRPTELGLVPRVADMLYQHHLATVDRLVTQGADELTAEKQAGAELREQVLGGRVITGFVSTAPLAAEMRAFLDITLGAHIVDGYGLTETGAVTRDGVIVRPPVIDYKLIDVPELGYFSTDKPYPRGELLVRSQTLTPGYYKRPEVTASVFDRDGYYHTGDVMAETAPDHLVYVDRRNNVLKLAQGEFVAVANLEAVFSGAALVRQIFVYGNSERSFLLAVVVPTPEALEQYDPAALKAALADSLQRTARDAELQSYEVPADFIVETEPFSAANGLLSGVGKLLRPNLKDRYGQRLEQMYADIAATQANQLRELRRAAATQPVIDTLTQAAATILGTGSEVASDAHFTDLGGDSLSALTLSNLLSDFFGFEVPVGTIVNPATNLAQLAQHIEAQRTAGDRRPSFTTVHGADATEIRASELTLDKFIDAETLRAAPGLPKVTTEPRTVLLSGANGWLGRFLTLQWLERLAPVGGTLITIVRGRDDAAARARLTQAYDTDPELSRRFAELADRHLRVVAGDIGDPNLGLTPEIWHRLAAEVDLVVHPAALVNHVLPYRQLFGPNVVGTAEVIKLALTERIKPVTYLSTVSVAMGIPDFEEDGDIRTVSPVRPLDGGYANGYGNSKWAGEVLLREAHDLCGLPVATFRSDMILAHPRYRGQVNVPDMFTRLLLSLLITGVAPRSFYIGDGERPRAHYPGLTVDFVAEAVTTLGAQQREGYVSYDVMNPHDDGISLDVFVDWLIRAGHPIDRVDDYDDWVRRFETALTALPEKRRAQTVLPLLHAFRAPQAPLRGAPEPTEVFHAAVRTAKVGPGDIPHLDEALIDKYIRDLREFGLI
# B3: SEQ ID NO 12: Vibrio fluvialis ω-transaminase, Genbank Accession No. AEA39183.1 (protein)
# chain: MNKPQSWEARAETYSLYGFTDMPSLHQRGTVVVTHGEGPYIVDVNGRRYLDANSGLWNMVAGFDHKGLIDAAKAQYERFPGYHAFFGRMSDQTVMLSEKLVEVSPFDSGRVFYTNSGSEANDTMVKMLWFLHAAEGKPQKRKILTRWNAYHGVTAVSASMTGKPYNSVFGLPLPGFVHLTCPHYWRYGEEGETEEQFVARLARELEETIQREGADTIAGFFAEPVMGAGGVIPPAKGYFQAILPILRKYDIPVISDEVICGFGRTGNTWGCVTYDFTPDAIISSKNLTAGFFPMGAVILGPELSKRLETAIEAIEEFPHGFTASGHPVGCAIALKAIDVVMNEGLAENVRRLAPRFEERLKHIAERPNIGEYRGIGFMWALEAVKDKASKTPFDGNLSVSERIANTCTDLGLICRPLGQSVVLCPPFILTEAQMDEMFDKLEKALDKVFAEVA
# What was measured:
# Type in all cases: biochemical
# [1] = ω-transaminase activity, reverse direction (7-aminoheptanoate to pimelate semialdehyde), L-alanine formation by RP-HPLC; conditions: cell free extract, 10 mM 7-aminoheptanoate, 10 mM pyruvate, pH 7.5, 25° C., 4 h; FIG. 13
# Protocol: (§1) A nucleotide sequence encoding an N-terminal His-tag was added to the nucleic acid sequences from Chromobacterium violaceum, Pseudomonas syringae, Rhodobacter sphaeroides, and Vibrio fluvialis encoding the ω-transaminases of SEQ ID NOs: 7, 9, 10 and 12, respectively (see FIG. 6) such that N-terminal HIS tagged ω-transaminases could be produced. Each of the resulting modified genes was cloned into a pET21a expression vector under control of the T7 promoter and each expression vector was transformed into a BL21[DE3] E. coli host. The resulting recombinant E. coli strains were cultivated at 37° C. in a 250 mL shake flask culture containing 50 mL LB media and antibiotic selection pressure, with shaking at 230 rpm. Each culture was induced overnight at 16° C. using 1 mM IPTG.
# (§2) The pellet from each induced shake flask culture was harvested via centrifugation. Each pellet was resuspended and lysed via sonication. The cell debris was separated from the supernatant via centrifugation and the cell free extract was used immediately in enzyme activity assays.
# Enzyme activity assays in the reverse direction (i.e., 7-aminoheptanoate to pimelate semialdehyde) were performed in a buffer composed of a final concentration of 50 mM HEPES buffer (pH=7.5), 10 mM 7-aminoheptanoate, 10 mM pyruvate and 100 μM pyridoxyl 5′ phosphate. Each enzyme activity assay reaction was initiated by adding cell free extract of the ω-transaminase gene product or the empty vector control to the assay buffer containing the 7-aminoheptanoate and incubated at 25° C. for 4 h, with shaking at 250 rpm. The formation of L-alanine from pyruvate was quantified via RP-HPLC.
# [2] = ω-transaminase activity, forward direction (pimelate semialdehyde to 7-aminoheptanoate), pyruvate formation by RP-HPLC; conditions: for acceptance of pimelate semialdehyde as substrate (conversion of L-alanine to pyruvate) against the empty vector control: cell free extract, 10 mM pimelate semialdehyde, 10 mM L-alanine, pH 7.5, 25° C., 4 h, FIG. 14; for reversibility of ω-transaminase activity: pimelate semialdehyde accepted, 7-aminoheptanoate synthesized: conclusion from reverse and forward assays of Example 1
# Protocol: as §1, §2
# Enzyme activity in the forward direction (i.e., pimelate semialdehyde to 7-aminoheptanoate) was confirmed for the transaminases of SEQ ID NO 9, SEQ ID NO 10 and SEQ ID NO 12. Enzyme activity assays were performed in a buffer composed of a final concentration of 50 mM HEPES buffer (pH=7.5), 10 mM pimelate semialdehyde, 10 mM L-alanine and 100 μM pyridoxyl 5′ phosphate. Each enzyme activity assay reaction was initiated by adding a cell free extract of the ω-transaminase gene product or the empty vector control to the assay buffer containing the pimelate semialdehyde and incubated at 25° C. for 4 h, with shaking at 250 rpm. The formation of pyruvate was quantified via RP-HPLC.
# [3] = ω-transaminase activity, 7-aminoheptanol to 7-oxoheptanol, L-alanine formation by RP-HPLC; conditions: for acceptance of 7-aminoheptanol as substrate (conversion of pyruvate to L-alanine) against the empty vector control: cell free extract, 10 mM 7-aminoheptanol, 10 mM pyruvate, pH 7.5, 25° C., 4 h, FIG. 17; for acceptance of 7-oxoheptanol as substrate forming 7-aminoheptanol, concluded from reversibility: inferred from reverse direction assay and Example 1
# Protocol: A nucleotide sequence encoding an N-terminal His-tag was added to the Chromobacterium violaceum, Pseudomonas syringae and Rhodobacter sphaeroides nucleic acids encoding the ω-transaminases of SEQ ID NOs: 7, 9 and 10, respectively (see FIG. 6) such that N-terminal HIS tagged ω-transaminases could be produced. The modified genes were cloned into a pET21a expression vector under the T7 promoter. Each expression vector was transformed into a BL21[DE3] E. coli host. Each resulting recombinant E. coli strain were cultivated at 37° C. in a 250 mL shake flask culture containing 50 mL LB media and antibiotic selection pressure, with shaking at 230 rpm. Each culture was induced overnight at 16° C. using 1 mM IPTG.
# as §2
# Enzyme activity assays in the reverse direction (i.e., 7-aminoheptanol to 7-oxoheptanol) were performed in a buffer composed of a final concentration of 50 mM HEPES buffer (pH=7.5), 10 mM 7-aminoheptanol, 10 mM pyruvate, and 100 μM pyridoxyl 5′ phosphate. Each enzyme activity assay reaction was initiated by adding cell free extract of the ω-transaminase gene product or the empty vector control to the assay buffer containing the 7-aminoheptanol and then incubated at 25° C. for 4 h, with shaking at 250 rpm. The formation of L-alanine was quantified via RP-HPLC.
# [4] = carboxylate reductase activity, N7-acetyl-7-aminoheptanoate to N7-acetyl-7-aminoheptanal, NADPH consumption at 340 nm; conditions: purified enzyme enhanced by sfp gene product, 2 mM N7-acetyl-7-aminoheptanoate, pH 7.5, room temperature, 20 min; FIG. 10
# Protocol: The activity of each of the N-terminal His-tagged carboxylate reductases of SEQ ID NOs: 3, 5, and 6 (see Examples 2 and 3, and FIG. 6) for converting N7-acetyl-7-aminoheptanoate to N7-acetyl-7-aminoheptanal was assayed in triplicate in a buffer composed of a final concentration of 50 mM HEPES buffer (pH=7.5), 2 mM N7-acetyl-7-aminoheptanoate, 10 mM MgCl2, 1 mM ATP, and 1 mM NADPH. The assays were initiated by adding purified carboxylate reductase and phosphopantetheine transferase or the empty vector control to the assay buffer containing the N7-acetyl-7-aminoheptanoate then incubated at room temperature for 20 min. The consumption of NADPH was monitored by absorbance at 340 nm.
molecule,measurement,setting,value
"SEQ ID NO 10: Rhodobacter sphaeroides ω-transaminase, Genbank Accession No. ABA81135.1",acceptance of 7-aminoheptanoate as substrate (conversion of pyruvate to L-alanine) against the empty vector control,[1],accepted 7-aminoheptanote as substrate
same,acceptance of pimelate semialdehyde as substrate (conversion of L-alanine to pyruvate) against the empty vector control,[2],accepted pimelate semialdehyde as substrate
same,"reversibility of ω-transaminase activity: pimelate semialdehyde accepted, 7-aminoheptanoate synthesized",[2],accepted pimelate semialdehyde as substrate and synthesized 7-aminoheptanoate as a reaction product
same,acceptance of 7-aminoheptanol as substrate (conversion of pyruvate to L-alanine) against the empty vector control,[3],accepted 7-aminoheptanol as substrate
same,"acceptance of 7-oxoheptanol as substrate forming 7-aminoheptanol, concluded from reversibility",[3],accept 7-oxoheptanol as substrate and form 7-aminoheptanol
B1,acceptance of 7-aminoheptanoate as substrate (conversion of pyruvate to L-alanine) against the empty vector control,[1],accepted 7-aminoheptanote as substrate
same,acceptance of pimelate semialdehyde as substrate (conversion of L-alanine to pyruvate) against the empty vector control,[2],accepted pimelate semialdehyde as substrate
same,"reversibility of ω-transaminase activity: pimelate semialdehyde accepted, 7-aminoheptanoate synthesized",[2],accepted pimelate semialdehyde as substrate and synthesized 7-aminoheptanoate as a reaction product
same,acceptance of 7-aminoheptanol as substrate (conversion of pyruvate to L-alanine) against the empty vector control,[3],accepted 7-aminoheptanol as substrate
same,"acceptance of 7-oxoheptanol as substrate forming 7-aminoheptanol, concluded from reversibility",[3],accept 7-oxoheptanol as substrate and form 7-aminoheptanol
B2,acceptance of N7-acetyl-7-aminoheptanoate as substrate (NADPH consumption) against the empty vector control,[4],accepted N7-acetyl-7-aminoheptanoate as substrate
B3,acceptance of 7-aminoheptanoate as substrate (conversion of pyruvate to L-alanine) against the empty vector control,[1],accepted 7-aminoheptanote as substrate
same,acceptance of pimelate semialdehyde as substrate (conversion of L-alanine to pyruvate) against the empty vector control,[2],accepted pimelate semialdehyde as substrate
same,"reversibility of ω-transaminase activity: pimelate semialdehyde accepted, 7-aminoheptanoate synthesized",[2],accepted pimelate semialdehyde as substrate and synthesized 7-aminoheptanoate as a reaction product
